Changes are numbered by the printed parent chain.
Tests used:
His-BFL-1ΔC = biological target: T1, His-BFL-1ΔC (Homo sapiens, UniProt Q16548); test: Streptavidin pulldown from recombinant protein mixture, BFL-1; assay type: binding; settings: equimolar mixture of recombinant MCL-1, BCL-XL, BFL-1 and biotinylated SAHB, silver stain
T1 construct: Recombinant anti-apoptotic BFL-1ΔC (aa 1-151) and its cysteine to serine mutants were cloned into PET17b; made in house; host or cells: Escherichia coli LOBSTR BL21(DE3)
T1 sequence (Q16548 1-151): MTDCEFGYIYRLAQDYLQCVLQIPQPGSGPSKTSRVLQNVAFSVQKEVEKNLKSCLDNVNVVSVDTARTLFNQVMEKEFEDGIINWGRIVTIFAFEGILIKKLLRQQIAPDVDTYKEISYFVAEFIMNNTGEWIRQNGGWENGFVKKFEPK
Protocol: WT His-BFL-1ΔC, BCL-XLΔC (tagless), and GST-MCL-1ΔNΔC (1 μM each) were combined and incubated with 3 mM DTT in PBS for thirty minutes at room temperature. Mixtures were treated with vehicle or the indicated C-terminally biotinylated NOXA SAHB (1 μM) for four hours and were then added to 30 μL PBS-washed high-capacity streptavidin (SA) agarose beads (Thermo Fisher Pierce) and incubated with rotation at room temperature for two hours. The beads were then washed three times with NP-40 lysis buffer (1% NP-40, 50 mM Tris pH 8, 100 mM NaCl, 2.5 mM MgCl2) and three times with PBS. To elute bound protein, beads were boiled for ten minutes with 10% SDS containing 10 mg/mL biotin. After elution, samples were boiled with 3×LDS and 2M DTT for twenty minutes. Gel electrophoresis using a 12% Bis-Tris gel was conducted on inputs (2%) and eluates (5 μL) and gels were developed using the Pierce silver staining kit (Thermo Fisher).

[1] = biological target: T2, HA-BFL-1ΔC C4S/C19S / tBID (Homo sapiens, UniProt Q16548, C19S/C4S); test: BFL-1/BH3 complex disruption: competition with tBID in 293T lysates; assay type: binding; settings: anti-HA immunoprecipitation
T2 construct: Recombinant anti-apoptotic BFL-1ΔC (aa 1-151) and its cysteine to serine mutants were cloned into PET17b; expressed in transfected cells; host or cells: 293T (lysate)
T2 sequence (Q16548 1-151 C4S/C19S): T1 sequence (Q16548 1-151) with C4S, C19S
Protocol: (§1) To evaluate the capacity of biotinylated SAHBs to compete with tBID for interactions with BFL-1 and MCL-1, 293T cells were transfected with either HA-BFL-1ΔC C4S/C19S or FLAG-MCL-1 in the p3XFLAG-CMV-10 vector (Sigma) as above. After 24 hr, cells were trypsinized, washed with PBS, lysed in 1% CHAPS buffer, and the supernatant collected for protein concentration determination by BCA kit. Lysate samples (0.5 mg) were incubated with 0.25 μM recombinant tBID (R&D Systems) and 5 μM biotinylated NOXA SAHBs for 6 h at RT. The mixtures were then subjected to HA or FLAG immunoprecipitation, followed by western analysis using 1:1000 dilutions of HA (Sigma Aldrich, #12CA5), FLAG (Sigma-Aldrich, F7425), and BID (Santa Cruz sc-11423) antibodies.

FLAG-MCL-1 / tBID = biological target: T3, FLAG-MCL-1 / tBID (Homo sapiens, UniProt Q07820); test: MCL-1/tBID complex disruption in 293T lysates; assay type: binding; settings: FLAG immunoprecipitation
T3 construct: expressed in transfected cells; host or cells: 293T (lysate)
Protocol: as §1

[2] = biological target: T4, BFL-1ΔC C4S/C19S / FITC-BID BH3 (Homo sapiens, UniProt Q16548, C19S/C4S); test: Competitive fluorescence polarization binding assay, BFL-1ΔC C4S/C19S; settings: fluorescence polarization competition
T4 construct: Recombinant anti-apoptotic BFL-1ΔC (aa 1-151) and its cysteine to serine mutants were cloned into PET17b; made in house; host or cells: Escherichia coli LOBSTR BL21(DE3)
T4 sequence (Q16548 1-151 C4S/C19S): T1 sequence (Q16548 1-151) with C4S, C19S
Protocol: (§2) Fluorescence polarization (FP) assays were performed as previously described (Pitter et al., 2008 (supra)). Briefly, direct binding curves were first generated by FITC-BID BH3 (25 nM) with serial dilutions of anti-apoptotic protein, and FP was measured at 5 min on a SpectraMax M5 microplate reader (Molecular Devices). For competition assays, a serial dilution of acetylated or warhead-bearing NOXA SAHB was added to the indicated recombinant protein at ˜EC75 concentration, as determined by the direct binding assay. FITC-BID BH3 (25 nM) was then added and fluorescence polarization was measured at equilibrium. IC50 values were calculated by nonlinear regression analysis of competitive binding curves using PRISM software (GraphPad).

[3] = biological target: T5, BFL-1ΔC C4S/C19S/C55S / FITC-BID BH3 (Homo sapiens, UniProt Q16548, C19S/C4S/C55S); test: Competitive fluorescence polarization binding assay, BFL-1ΔC C4S/C19S/C55S
T5 construct: Recombinant anti-apoptotic BFL-1ΔC (aa 1-151) and its cysteine to serine mutants were cloned into PET17b; hexahistidine (N); made in house; host or cells: Escherichia coli LOBSTR BL21(DE3)
T5 sequence (Q16548 1-151 C4S/C19S/C55S): T1 sequence (Q16548 1-151) with C4S, C19S, C55S
Protocol: as §2

MV4;11 cells = test: Cell viability (CellTiter-Glo) and CalcuSyn synergy, MV4;11; settings: MV4;11 cells (not dependent on BFL-1, dependent on MCL-1)
Protocol: Cell viability and caspase-3/7 activation was measured using CellTiter-Glo and Caspase-Glo 3/7 chemiluminescence reagents (Promega), respectively, and luminescence was detected by a Spectramax M5 microplate reader. Synergy of drug interactions was calculated using the CalcuSyn software (Biosoft).

KG-1 cells = test: Cell viability (CellTiter-Glo) and CalcuSyn synergy, KG-1; assay type: cell-based, human; settings: KG-1 AML cells
Protocol: U937, MV4;11, OCI-AML-3, Jurkat, and KG-1 cells cultured in RPMI containing 10% FBS and penicillin-streptomycin were plated in 96-well plates (5×10^3 cells per well) and, after overnight incubation, treated with the indicated concentrations of D-NA-NOXA SAHB and/or AZD0156, Ku-60019, Ku-55933, AZD7762, olaparib, or S63845 (all from Selleck Chemicals) in RPMI supplemented with 5% FBS for the indicated durations. Cell viability and caspase-3/7 activation was measured using CellTiter-Glo and Caspase-Glo 3/7 chemiluminescence reagents (Promega), respectively, and luminescence was detected by a Spectramax M5 microplate reader. Synergy of drug interactions was calculated using the CalcuSyn software (Biosoft).

T3 sequence (Q07820 whole entry): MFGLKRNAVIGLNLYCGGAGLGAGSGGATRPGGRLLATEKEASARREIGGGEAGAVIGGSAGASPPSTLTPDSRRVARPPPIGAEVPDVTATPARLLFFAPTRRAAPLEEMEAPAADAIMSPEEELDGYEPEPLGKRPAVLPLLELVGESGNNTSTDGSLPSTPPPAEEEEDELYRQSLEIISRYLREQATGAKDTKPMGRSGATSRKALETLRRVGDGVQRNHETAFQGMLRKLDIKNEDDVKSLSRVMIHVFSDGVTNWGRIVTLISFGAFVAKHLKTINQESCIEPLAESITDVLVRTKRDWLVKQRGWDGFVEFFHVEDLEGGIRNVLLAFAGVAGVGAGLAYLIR

## JAT8LREFGDXLNFRQ [D-NA-NOXA-15 R31E]
His-BFL-1ΔC
  BFL-1 binding / pull down: striking competitive advantage for BFL-1 targeting over its acetylated counterpart
[1]
  competition with tBID for HA-BFL-1ΔC C4S/C19S interaction: effectively competes with tBID
FLAG-MCL-1 / tBID
  dissociation of FLAG-MCL-1/tBID interaction: neither D-NA- nor Ac-NOXA15 R31E is able to dissociate the interaction
[2]
  disruption of BFL-1ΔC C4S/C19S / FITC-BID BH3 interaction: displays the ability to disrupt the interaction
[3]
  competition for FITC-BID BH3 binding to BFL-1ΔC C4S/C19S/C55S: neither D-NA- nor Ac-NOXA15 R31E competes
MV4;11 cells
  cytotoxicity, single agent: essentially insensitive
KG-1 cells
  cytotoxicity, single agent: dose-responsive cytotoxicity

Source: patent US12466853B2, “Selective targeting of apoptosis proteins by structurally-stabilized and/or cysteine-reactive NOXA peptides” (priority 2017, dated 2025)
